Measurements as given in patent publication US9200265B2, “Anti-cocaine compositions and treatment” (priority 2006, dated 2015).
Where two headings read alike, the source gives them in different places.

Legend:
[1] = Thermal stability: preincubation at 37° C., activity measured at RT (25° C.); format: physicochemical; conditions: wild type
Method: Thermally stable mutant CocE polypeptides were identified by determining 1/2 of the mutant CocE polypeptides. Briefly, enzymes were preincubated at 37° C. for varying times. Activity measurements were determined at RT (25° C.). Mutant enzymes with 1/2 of greater than 12 minutes (the 1/2 of wild type CocE) were considered thermally stable (See, e.g., FIG. 27 and Table 7).

[2] = Melting temperature by circular dichroism (near-UV); format: physicochemical
Method: Plasmids containing the mutations were transformed into E. coli BL21 cells and IPTG-induced enzyme was purified on Ni-Agarose. Expressed proteins were then tested for enzymatic activity and for thermostability at 37° C. Enzyme activity was measured using the spectrophotometric assay as described in Example 1. Thermostability was also tested via the spectrophotometric assay by pre-incubation of both wild-type and mutants at 37° C. for various times. Additionally, the nature of the thermo-instability of both the wild-type and T172R mutant was analyzed by polyacrylamide gel electrophoresis under denaturing and non-denaturing conditions. Briefly, mutant and wild-type enzyme at 0.1 mg/ml were incubated at 37° C. for various time-points, cooled to 4° C., mixed with SDS-loading dye containing-mercaptoethanol and run on 10% SDS-PAGE gels (denaturing conditions) or run on native 10% polyacrylamide gels (non-denaturing conditions) at 4° C. Gels were fixed with 10% methanol, 7% acetic acid for 30 minutes, and then stained with Sypro-Ruby protein gel stain (Molecular Probes, Invitrogen) for 3 hours. Protein staining was visualized under UV-light using an AlphaImager™ 3400 (Alpha Innotech). Finally, the exact melting temperature of both the wild-type and T172R mutant were determined by circular dichroism using a JASCO-810 spectropolarimeter driven by a JASCO V500/FP-750 analysis program for Windows. The CD spectra were measured in millidegrees and normalized against PBS buffer.

[3] = Low-UV CD spectra melt with CCA deconvolution; format: physicochemical; conditions: for #3 formation: accumulation of the fully melted protein; for #1 melt: initial spectra melts, 0.2 mg/ml; for #2 melt: melt of the intermediate state
Method: Low-UV CD spectra data were obtained using an Aviv Spectropolarimeter Mode 400, with the help of Norma Greenfield, UMDNJ, using a 5-cell holder and 0.2 mg/ml protein concentrations. Raw data values obtained were blanked on control PBS, smoothed, and deconvoluted using the CCA algorithm as described by A. Perczel, K. Park, and G. D. Fasman, [Analysis of the circular dichroism spectrum of proteins using the convex constraint algorithm: a practical guide. Analytical Biochemistry 203, 83-93 (1992).] This algorithm finds the minimum number of curves needed to reconstruct a data set, and expresses the percentage each curve contributes to the data set as a function of temperature.
Below is presented a low UV CCA denconvolution analysis of CocE WT and 4 mutants, obtained in a single CD spectra melt using a 5-cell holder. The experiment was performed over the period of 8 hours, from 0-80° C.
Temperature dependent melting was observed between the wavelengths tested (200-250 nm), and the smoothed spectra for each mutant are shown in FIG. 29. […] Dose response analysis was used to approximate the temperature at which the initial spectra melts (1), the formation and melt of the intermediate state (2), and the accumulation of the fully melted protein (3).

CocE antibodies = assay: Direct ELISA specific for CocE antibodies in serum of mice; format: in vivo, mouse
Method: CocE can be used in incomplete Freund's adjuvant (IFA) to immunize mice (see Table 4). A direct ELISA specific for CocE antibodies was set up by a standard protocol. CocE was used (1 ug/ml) to coat a 96-well micro-titer plate using a borate buffered saline (1.5 M NaCl, 0.5 M H3BO3, 1.0 M NaOH) to resuspend the cocaine esterase (50 uL/well). The coating plates was left overnight at 4 C. The coating buffer was removed the following morning and the plates blocked with 2% normal goat serum in PBS for 1 hr at 37 C and washed 3 times. Serum from the various groups of mice was serially diluted in 50 μL of PBS in the wells in a range of 10^2 to […] and run in duplicate. The plates were covered and incubated for 30 minutes at 37 C. Subsequently, the plates were washed 3 times and 50 μL/well of Goat anti-mouse IgG peroxidase labeled antibody diluted 1:400. The plates were then washed 3 times and 100 μL peroxidase substrate solution (OPD dissolved in citratelphosphate buffer) was added to each well. After a 5-10 minute incubation (based upon color development in the positive controls) the reaction was stopped using 3M H2SO4 (50 μL/well). […] Positive controls were derived by immunizing Balb/c mice with 100 μg in 100 μL of Cocaine esterase emulsified in incomplete Freund's adjuvant […] by intraperitoneal (IP) injection. In Positive 1 group the serum was isolated from 2 week immunized mice. In Positive 2 group immunized mice were boosted using 100 μg in 100 μL by IP injection at 2 weeks post-primary immunization and the serum collected after an additional week (3 week post-primary).

[4] = Decay of CocE activity in plasma at 37° C. or after intravenous administration into a mouse; format: in vitro ADME; conditions: incubation in plasma at 37° C., or after intravenous administration into a mouse
[5] = cited from earlier work
[6] = cocaethylene; cited from earlier work
[7] = test system: WIN 35065-2 induced toxicity; assay: WIN 35065-2 induced lethality in rats; conditions: 1.0 mg CocE i.v. one minute after 560 mg/kg WIN-35065-2 i.p.
[8] = Cocaine spectrophotometric assay (240 nm), Michaelis-Menten kinetics
[9] = Time-dependent inactivation of CocE in vitro (incubation at temperature, then activity)
Method: For time-dependent inactivation of CocE in vitro, purified CocE enzyme (at 250 ng/ml) was incubated in assay buffer in the absence of cocaine at 37° C. for various times. Following incubation at 37° C. the samples were placed on ice. To assess the effect of temperature on CocE activity, samples were incubated with (−) cocaine at various concentrations as indicated at a final enzyme concentration of 125 ng/ml. The rate of decay of (−)-cocaine at A240 was measured on a multiplate reader.

[10] = purified wild-type, cocaine, PBS pH 7.4

B1: CocE: wild-type cocaine esterase of Rhodococcus sp. MB 1, SEQ ID NO: 1, Accession No. AF173165 (protein)
chain: MVDGNYSVASNVMVPMRDGVRLAVDLYRPDADGPVPVLLVRNPYDKFDVFAWSTQSTNWLEFVRDGYAVVIQDTRGLFASEGEFVPHVDDEADAEDTLSWILEQAWCDGNVGMFGVSYLGVTQWQAAVSGVGGLKAIAPSMASADLYRAPWYGPGGALSVEALLGWSALIGTGLITSRSDARPEDAADFVQLAAILNDVAGAASVTPLAEQPLLGRLIPWVIDQVVDHPDNDESWQSISLFERLGGLATPALITAGWYDGFVGESLRTFVAVKDNADARLVVGPWSHSNLTGRNADRKFGIAATYPIQEATTMHKAFFDRHLRGETDALAGVPKVRLFVMGIDEWRDETDWPLPDTAYTPFYLGGSGAANTSTGGGTLSTSISGTESADTYLYDPADPVPSLGGTLLFHNGDNGPADQRPIHDRDDVLCYSTEVLTDPVEVTGTVSARLFVSSSAVDTDFTAKLVDVFPDGRAIALCDGIVRMRYRETLVNPTLIEAGEIYEVAIDMLATSNVFLPGHRIMVQVSSSNFPKYDRNSNTGGVIAREQLEEMCTAVNRIHRGPEHPSHIVLPIIKR
modifications: Rhodococcus sp. MB1
With B1 the “1/2 (t1/2) at 37° C.” value [1] was 12 min, the detectable denaturation beginning ([2]; near-UV CD) was “approximately 30 °C” and the melting temperature ([2]; near-UV CD (260-320 nm), curve-fitting) was 36.15 °C. For the same molecule, the “#3 formation” value [3] was 59 °C, the “#3 formation” value ([3]; listed as WT) was 59.86 °C and the “#2 formation” value ([3]; formation of the intermediate state) was 34.57 °C. The “#1 melt” value [3] was 37 °C, the “#1 melt” value ([3]; listed as WT) was 37.04 °C and the “#2 melt” value [3] was 50 °C. For the same molecule, the “#2 melt” value ([3]; listed as WT) was 50.98 °C, the “Titer (log10 dilution +/− SE)” value (CocE antibodies; Challenged and Treated (3x), CocE given with cocaine) was 3.33 +/− 0.333 and the “Titer (log10 dilution +/− SE)” value (CocE antibodies; Challenged and Treated (4x), CocE given with cocaine) was 3.5 +/− 0.5. The antibody titers (CocE antibodies; CocE i.v. during cocaine challenges) was “detectable but relatively low titers”, the antibody titer (CocE antibodies; CocE/IFA with an additional boost) was 10^6 and the “Titer (log10 dilution +/− SE)” value (CocE antibodies; Positive 1 (n = 3) 2 weeks, Immunized (IFA/IP)) was 5. The “Titer (log10 dilution +/− SE)” value (CocE antibodies; Positive 2 (n = 3) 3 weeks, Immunized/Boost (IFA/IP)) was 6, the antibody titer (CocE antibodies; immunized once with CocE/IFA) was 10^5 and the “decay of CocE activity” value [4] was > 50%. The Kcat ([5]; against (-) cocaine) was 7.8 s⁻¹, the Km ([5]; against (-) cocaine) was 0.64 µM and the Km ([5]; purified enzyme, cocaine) was 0.64 µM. For the same molecule, the “kcal (Michaelis-Menten kinetics)” value ([5]; purified enzyme, cocaine) was 7.2 s⁻¹, the Kcat [6] was 9.4 s⁻¹ and the Km [6] was 1.6 µM. The “lethal effect of WIN 35065-2 under treatment with CocE” value [7] was “not overcome”, the Km ([8]; 40 min @ 37° C.) was 12.3 µM and the Km ([8]; no preincubation) was 71.8 µM. For the same molecule, the Kcat [8, 10] was “approx. 500 min^−1”, the Km [8, 10] was ~2 µM and the “t1/2 of CocE” value ([9]; at 4° C.) was “greater than 6 months”. For the same molecule, the “t1/2 of CocE” value ([9]; at 37° C.) was “approximately 15 minutes”.
